Assay results from paper PMC10397247.
Blank lines part the entries; values can stand above or below the binder they belong to.

Key:
[1] = target: T1, 4H2585-bN; assay: two-hybrid library CCNG1;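 also: natural log of median RNA to DNA barcode read ratio; higher means stronger binding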
T1 chain: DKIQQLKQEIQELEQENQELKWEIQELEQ

[2] = target: T2, 4H264-bN; assay: two-hybrid library CCNG1;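 also: natural log of median RNA to DNA barcode read ratio; higher means stronger binding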
T2 chain: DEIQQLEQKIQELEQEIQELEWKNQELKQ

[3] = target: T3, 4H2760-bN; assay: two-hybrid library CCNG1;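 also: natural log of median RNA to DNA barcode read ratio; higher means stronger binding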
T3 chain: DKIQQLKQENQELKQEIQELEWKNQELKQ

[4] = target: T4, 4H2859-bN; assay: two-hybrid library CCNG1;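 also: natural log of median RNA to DNA barcode read ratio; higher means stronger binding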
T4 chain: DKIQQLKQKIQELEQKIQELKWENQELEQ

[5] = target: T5, 4H2931-bN; assay: two-hybrid library CCNG1;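 also: natural log of median RNA to DNA barcode read ratio; higher means stronger binding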
T5 chain: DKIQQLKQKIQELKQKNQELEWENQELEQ

[6] = target: T6, 4H3041-bN; assay: two-hybrid library CCNG1;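 also: natural log of median RNA to DNA barcode read ratio; higher means stronger binding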
T6 chain: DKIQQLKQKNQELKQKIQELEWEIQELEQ

[7] = target: T7, 4H3297-bN; assay: two-hybrid library CCNG1
T7 chain: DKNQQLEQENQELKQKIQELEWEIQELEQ

[8] = target: T8, 4H3364-bN; assay: two-hybrid library CCNG1
T8 chain: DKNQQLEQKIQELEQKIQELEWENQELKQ

[9] = target: T9, 4H3381-bN; assay: two-hybrid library CCNG1
T9 chain: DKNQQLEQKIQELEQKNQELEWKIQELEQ

[10] = target: T10, 4H346-bN; assay: two-hybrid library CCNG1
T10 chain: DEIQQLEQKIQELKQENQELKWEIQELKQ

[11] = target: T11, 4H349-bN; assay: two-hybrid library CCNG1
T11 chain: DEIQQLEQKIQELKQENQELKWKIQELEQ

[12] = target: T12, 4H56-bN; assay: two-hybrid library CCNG1
T12 chain: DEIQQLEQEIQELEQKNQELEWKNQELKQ

[13] = target: T13, 4H730-bN; assay: two-hybrid library CCNG1
T13 chain: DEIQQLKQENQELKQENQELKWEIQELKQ

[14] = target: T14, 4H796-bN; assay: two-hybrid library CCNG1
T14 chain: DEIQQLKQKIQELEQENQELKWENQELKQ

[15] = target: T15, 4H932-bN; assay: two-hybrid library CCNG1
T15 chain: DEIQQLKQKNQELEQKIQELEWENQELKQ

[16] = target: T16, 4H949-bN; assay: two-hybrid library CCNG1
T16 chain: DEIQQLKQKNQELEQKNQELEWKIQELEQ

[17] = target: T17, P8mS; assay: two-hybrid library CCNG1
T17 chain: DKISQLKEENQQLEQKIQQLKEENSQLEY

[18] = target: T18, P9mS; assay: two-hybrid library CCNG1
T18 chain: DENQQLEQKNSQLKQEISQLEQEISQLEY

[19] = target: T19, 4H967-bA; assay: two-hybrid library CCNG1
T19 chain: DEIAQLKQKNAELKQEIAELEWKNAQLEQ

[20] = target: T20, O15-bA; assay: two-hybrid library CCNG1
T20 chain: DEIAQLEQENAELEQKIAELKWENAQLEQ

[21] = target: T21, 4H2627-bA; assay: two-hybrid library CCNG1
T21 chain: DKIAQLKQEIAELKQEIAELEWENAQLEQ

[22] = target: T22, 4H2673-bA; assay: two-hybrid library CCNG1
T22 chain: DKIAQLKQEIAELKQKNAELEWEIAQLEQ

[23] = target: T23, 4H2702-bA; assay: two-hybrid library CCNG1
T23 chain: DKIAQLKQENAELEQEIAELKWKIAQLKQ

[24] = target: T24, 4H3010-bA; assay: two-hybrid library CCNG1
T24 chain: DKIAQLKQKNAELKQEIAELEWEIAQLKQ

[25] = target: T25, 4H3112-bA; assay: two-hybrid library CCNG1
T25 chain: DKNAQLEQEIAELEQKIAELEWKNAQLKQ

[26] = target: T26, 4H3427-bA; assay: two-hybrid library CCNG1
T26 chain: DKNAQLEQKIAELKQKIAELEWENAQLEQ

[27] = target: T27, 4H346-bA; assay: two-hybrid library CCNG1
T27 chain: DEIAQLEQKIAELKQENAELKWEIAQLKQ

[28] = target: T28, 4H3926-bA; assay: two-hybrid library CCNG1
T28 chain: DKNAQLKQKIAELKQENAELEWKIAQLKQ

[29] = target: T29, 4H4073-bA; assay: two-hybrid library CCNG1
T29 chain: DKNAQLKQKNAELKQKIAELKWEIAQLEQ

[30] = target: T30, 4H457-bA; assay: two-hybrid library CCNG1; conditions: mean of both orientations
T30 chain: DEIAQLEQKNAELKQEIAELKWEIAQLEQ

[31] = target: T31, 4H575-bA; assay: two-hybrid library CCNG1
T31 chain: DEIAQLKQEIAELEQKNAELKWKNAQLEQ

[32] = target: T32, 4H683-bA; assay: two-hybrid library CCNG1
T32 chain: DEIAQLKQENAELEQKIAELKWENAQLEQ

[33] = target: T33, 4H754-bA; assay: two-hybrid library CCNG1
T33 chain: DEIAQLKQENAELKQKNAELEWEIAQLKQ

[34] = target: T34, 4H780-bA; assay: two-hybrid library CCNG1
T34 chain: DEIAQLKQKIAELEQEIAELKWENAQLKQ

[35] = target: T35, 4H797-bA; assay: two-hybrid library CCNG1
T35 chain: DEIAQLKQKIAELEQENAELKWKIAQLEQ

[36] = target: T36, 4H855-bA; assay: two-hybrid library CCNG1
T36 chain: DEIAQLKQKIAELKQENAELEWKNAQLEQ

[37] = target: T37, 4H918-bA; assay: two-hybrid library CCNG1
T37 chain: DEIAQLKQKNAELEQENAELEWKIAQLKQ

[38] = target: T38, 4H953-bA; assay: two-hybrid library CCNG1
T38 chain: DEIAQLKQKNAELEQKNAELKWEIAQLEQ

[39] = target: T39, 4H968-bA; assay: two-hybrid library CCNG1
T39 chain: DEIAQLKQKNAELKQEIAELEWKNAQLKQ

[40] = target: T40, 4H2512-AA; assay: two-hybrid library CCmax
T40 chain: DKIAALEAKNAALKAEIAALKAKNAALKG

[41] = target: T41, 4H2646-AA; assay: two-hybrid library CCmax; conditions: mean of both orientations
T41 chain: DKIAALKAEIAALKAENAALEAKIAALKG

[42] = target: T42, 4H2687-AA; assay: two-hybrid library CCmax; conditions: mean of both orientations
T42 chain: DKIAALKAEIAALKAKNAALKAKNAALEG

[43] = target: T43, 4H2705-AA; assay: two-hybrid library CCmax
T43 chain: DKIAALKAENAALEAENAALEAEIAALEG

[44] = target: T44, 4H2758-AA; assay: two-hybrid library CCmax
T44 chain: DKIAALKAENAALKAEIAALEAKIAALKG

[45] = target: T45, 4H278-AA; assay: two-hybrid library CCmax; conditions: mean of both orientations
T45 chain: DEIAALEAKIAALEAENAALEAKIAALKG

[46] = target: T46, 4H2873-AA; assay: two-hybrid library CCmax; conditions: mean of both orientations
T46 chain: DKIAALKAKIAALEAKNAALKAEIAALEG

[47] = target: T47, 4H2985-AA; assay: two-hybrid library CCmax; conditions: mean of both orientations
T47 chain: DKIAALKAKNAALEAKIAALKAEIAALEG

[48] = target: T48, 4H3134-AA; assay: two-hybrid library CCmax; conditions: mean of both orientations
T48 chain: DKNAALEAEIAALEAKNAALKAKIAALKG

[49] = target: T49, 4H3409-AA; assay: two-hybrid library CCmax; conditions: mean of both orientations
T49 chain: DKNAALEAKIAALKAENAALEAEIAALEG

[50] = target: T50, 4H3625-AA; assay: two-hybrid library CCmax; conditions: mean of both orientations
T50 chain: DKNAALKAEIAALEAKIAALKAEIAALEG

[51] = target: T51, 4H390-AA; assay: two-hybrid library CCmax; conditions: mean of both orientations
T51 chain: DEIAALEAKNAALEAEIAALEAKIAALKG

[52] = target: T52, 4H3940-AA; assay: two-hybrid library CCmax; conditions: mean of both orientations
T52 chain: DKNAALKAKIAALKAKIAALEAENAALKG

[53] = target: T53, 4H510-AA; assay: two-hybrid library CCmax; conditions: mean of both orientations
T53 chain: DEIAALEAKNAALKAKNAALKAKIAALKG

[54] = target: T54, 4H775-AA; assay: two-hybrid library CCmax; conditions: mean of both orientations
T54 chain: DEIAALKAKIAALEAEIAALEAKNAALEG

[55] = target: T55, 4H816-AA; assay: two-hybrid library CCmax; conditions: mean of both orientations
T55 chain: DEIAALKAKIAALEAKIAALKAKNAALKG

[56] = target: T56, 4H87-AA; assay: two-hybrid library CCmax; conditions: mean of both orientations
T56 chain: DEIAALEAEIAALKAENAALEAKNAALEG

- interaction score [1]: -0.804
- interaction score [2]: -0.828
- interaction score [3]: -1.01
- interaction score [4]: 0.161
- interaction score [5]: -0.905
- interaction score [6]: -0.321
- interaction score [7]: -0.64
- interaction score [8]: -0.855
- interaction score [9]: -2.06
- interaction score [10]: 2.36
- interaction score [11]: 1.61
- interaction score [12]: -0.978
- interaction score [13]: -0.949
- interaction score [14]: -0.881
- interaction score [15]: -1.52
- interaction score [16]: -0.975
Binder: DKIQQLKQEIQELEQENQELKWEIQELEQ [4H2585-bN]

- interaction score [17]: -1.02
- interaction score [18]: -0.61
Binder: DKISQLKEENQQLEQKIQQLKEENSQLEY [P8mS]

- interaction score [19]: -0.153
- interaction score [20]: 1.66
Binder: DEIAQLKQKNAELKQEIAELEWKNAQLEQ [4H967-bA]

- interaction score [21]: 0.441
- interaction score [22]: -0.531
- interaction score [23]: 0.286
- interaction score [24]: -0.0123
- interaction score [25]: 0.764
- interaction score [26]: 1.03
- interaction score [27]: -1.21
- interaction score [28]: -0.308
- interaction score [29]: 1.07
- interaction score [30]: -0.508
- interaction score [31]: 0.64
- interaction score [32]: -0.856
- interaction score [33]: -1.42
- interaction score [34]: -0.421
- interaction score [35]: -1.1
- interaction score [36]: -1.42
- interaction score [37]: -1.03
- interaction score [38]: -0.555
- interaction score [39]: -0.842
Binder: DKIAQLKQEIAELKQEIAELEWENAQLEQ [4H2627-bA]

- interaction score [40]: 0.206
- interaction score [41]: -1.05
- interaction score [42]: -1.95
- interaction score [43]: -0.766
- interaction score [44]: -0.837
- interaction score [45]: 2.22
- interaction score [46]: -1.36
- interaction score [47]: 0.303
- interaction score [48]: -0.978
- interaction score [49]: 1.21
- interaction score [50]: -1.5
- interaction score [51]: 0.0427
- interaction score [52]: -1.72
- interaction score [53]: -1.85
- interaction score [54]: -1.11
- interaction score [55]: -1.79
- interaction score [56]: -0.485
Binder: DKIAALEAKNAALKAEIAALKAKNAALKG [4H2512-AA]
